T1: B7H3 (human, UniProt Q5ZPR3 29-466, limits assumed)
T1 sequence (looked up): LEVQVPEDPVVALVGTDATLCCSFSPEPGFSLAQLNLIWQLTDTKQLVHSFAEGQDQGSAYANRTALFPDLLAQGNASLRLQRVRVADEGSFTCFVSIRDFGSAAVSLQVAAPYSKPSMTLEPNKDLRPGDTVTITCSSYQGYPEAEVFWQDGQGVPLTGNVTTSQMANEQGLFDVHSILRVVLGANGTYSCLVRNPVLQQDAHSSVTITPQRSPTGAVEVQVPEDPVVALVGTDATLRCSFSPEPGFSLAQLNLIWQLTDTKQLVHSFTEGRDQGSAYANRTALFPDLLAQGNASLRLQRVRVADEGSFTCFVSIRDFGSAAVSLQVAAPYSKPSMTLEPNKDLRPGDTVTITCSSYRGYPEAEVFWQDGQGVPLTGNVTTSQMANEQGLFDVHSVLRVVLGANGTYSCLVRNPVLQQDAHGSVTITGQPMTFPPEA

B1: Ly2364 (other)
chain 1: QVQLVQSGAEVKKPGASVKVSCKASGYTFTSYVMHWVRQKPGQGLEWIGYINPYNEGTESTDKFKGRATMTSDKSTSTVYMELSSLRSEDTAVYYCASIYYGYEGTYFGVWGQGTLVTVSSASTKGPSVFPLAPSSKSTSGGTAALGCLVKDYFPEPVTVSWNSGALTSGVHTFPAVLQSSGLYSLSSVVTVPSSSLGTQTYICNVNHKPSNTKVDKKVEPKSCGGGGSGGGGSGGGGSGGGGSGGGGSEVQLVESGGGLVQPGGSLRLSCAASGFTFSTYAMNWVRQAPGKGLEWVGRIRSKYNNYATYYADSVKGRFTISRDDSKNSLYLQMNSLKTEDTAVYYCVRHGNFGNSYVSWFAYWGQGTLVTVSSGGGGSDKTHTCPPCPAPEAAGPSVFLFPPKPKDTLMISRTPEVTCVVVDVSHEDPEVKFNWYVDGVEVHNAKTKPREEQYNSTYRVVSVLTVLHQDWLNGKEYKCKVSNKALPAPIEKTISKAKGQPREPQVYTLPPSREEMTKNQVSLWCLVKGFYPSDIAVEWESNGQPENNYKTTPPVLDSDGSFFLYSKLTVDKSRWQQGNVFSCSVMHEALHNHYTQKSLSLSPGGGGGSGGGGSGGGGSGGGGSQVQLVQSGAEVKKPGASVKVSCKASGYTFAGFEMHWVRQAPGQGLEWMGAIDPKTGGTDYNQKFKDRVTMTRDTSISTAYMELSRLRSDDTAVYYCARDLGYFDVWGQGTLVTVSS
chain 2: QVQLVQSGAEVKKPGASVKVSCKASGYTFTSYVMHWVRQKPGQGLEWIGYINPYNEGTESTDKFKGRATMTSDKSTSTVYMELSSLRSEDTAVYYCASIYYGYEGTYFGVWGQGTLVTVSSASTKGPSVFPLAPSSKSTSGGTAALGCLVKDYFPEPVTVSWNSGALTSGVHTFPAVLQSSGLYSLSSVVTVPSSSLGTQTYICNVNHKPSNTKVDKKVEPKSCGGGGSGGGGSGGGGSGGGGSGGGGSQAVVTQEPSLTVSPGGTVTLTCRSSTGAVTTSNYANWVQQKPGQAPRGLIGGTNKRAPWTPARFSGSLLGGKAALTITGAQAEDEADYYCALWYSNLWVFGGGTKLTVLGGGGSDKTHTCPPCPAPEAAGPSVFLFPPKPKDTLMISRTPEVTCVVVDVSHEDPEVKFNWYVDGVEVHNAKTKPREEQYNSTYRVVSVLTVLHQDWLNGKEYKCKVSNKALPAPIEKTISKAKGQPREPQVYTLPPSREEMTKNQVSLSCAVKGFYPSDIAVEWESNGQPENNYKTTPPVLDSDGSFFLVSKLTVDKSRWQQGNVFSCSVMHEALHNRFTQKSLSLSPGGGGGSGGGGSGGGGSGGGGSDIQMTQSPSSLSASVGDRVTITCRASQDIRSNLNWYQQKPGGAVKLLIYYTSRLHSGVPSRFSGSGSGTDYTLTISSLQPEDFATYFCQQSEKLPRTFGGGTKVEIR
light: EIVLTQSPATLSLSPGERATLSCRASSSVSYMHWYQQKPGQAPRPWIYATSNLASGIPARFSGSRSGTDYTLTISSLEPEDFAVYYCQQWSSNTLTFGGGTKVEIKRTVAAPSVFIFPPSDEQLKSGTASVVCLLNNFYPREAKVQWKVDNALQSGNSQESVTEQDSKDSTYSLSSTLTLSKADYEKHKVYACEVTHQGLSSPVTKSFNRGEC
notes: Tri-specific antibody: B7H3 Fabs, central CD3 Fv, terminal CD137 Fv; Flexible linker is (G4S)5
B2: Ly1612 (antibody, V domains shown)
VH: QVQLVQSGAEVKKPGASVKVSCKASGYTFTSYVMHWVRQKPGQGLEWIGYINPYNEGTESTDKFKGRATMTSDKSTSTVYMELSSLRSEDTAVYYCASIYYGYEGTYFGVWGQGTLVTVSS
VL: EIVLTQSPATLSLSPGERATLSCRASSSVSYMHWYQQKPGQAPRPWIYATSNLASGIPARFSGSRSGTDYTLTISSLEPEDFAVYYCQQWSSNTLTFGGGTKVEIK
notes: Parent mAb; also called Anti-B7H3 Ly1612; B7H3 mAb

Molecular target: T1, B7H3
Assay: ELISA or FCM (Example 2)

Row | Binder | binding result
1 | B1 | binds
2 | B2 | binds
